# B1: OVA: Ovalbumin, model antigen for evaluation of vaccine adjuvants (protein, UniProt P01012 2-386, looked up)
# Ovalbumin: GSIGAASMEFCFDVFKELKVHHANENIFYCPIAIMSALAMVYLGAKDSTRTQINKVVRFDKLPGFGDSIEAQCGTSVNVHSSLRDILNQITKPNDVYSFSLASRLYAEERYPILPEYLQCVKELYRGGLEPINFQTAADQARELINSWVESQTNGIIRNVLQPSSVDSQTAMVLVNAIVFKGLWEKAFKDEDTQAMPFRVTEQESKPVQMMYQIGLFRVASMASEKMKILELPFASGTMSMLVLLPDEVSGLEQLESIINFEKLTEWTSSNVMEERKIKVYLPRMKMEEKYNLTSVLMAMGITDVFSSSANLSGISSAESLKISQAVHAAHAEINEAGREVVGSAEAGVDAASVSEEFRADHPFLFCIKHIATNAVLFFGRCVSP
# Test system: splenocytes from immunized mice
# Experiment: IFN‐γ production by splenocytes of immunized mice after in vitro re-stimulation (ELISA)
# Assay type: in vivo, C57BL/6 mice
# Conditions: spleen cells from vaccinated mice (NPs plus OVA, or OVA only), OVA stimulation 48 h in vitro
# Protocol: To further investigate the activation ability of mannosylated nanoparticles, the spleen cells from mice that vaccinated for 4 weeks with mannosylated NPs plus OVA (group 1) and OVA only (group 4) were stimulated by OVA for 48 h in vitro. The expression levels of IFN‐γ in cell media with or without OVA stimulation was measured by ELISA (Figure 6c).
# After immunization, the spleens of the immunized mice were removed under sterile conditions and suspended in sterile cold PBS. After centrifugation, the cell suspension was diluted to 2 × 10^6 cells mL^−1 in RPMI 1640 supplemented with 10% FBS, 100 µg mL^−1 streptomycin and 100 unit mL^−1 penicillin, and cultured overnight. After removal of the non‐adherent cells, the medium was changed, and the OVA protein in buffer and PBS buffer only were added to different wells, respectively, and cultured for 48 h. The culture media was then collected and diluted for the ELISA tests. Following the instructions of ELISA kit, the samples, anti‐IFN‐γ antibody, and chromogenic substrates were added in order. The corresponding OD450 was measured by Multiskan GO (Thermo Scientific) microplate reader.
molecule,measurement,value
B1,IFN‐γ expression in cell media,Upregulation of IFN‐γ

# From article PMC7435236, “Self‐Assembling Glycopeptide Conjugate as a Versatile Platform for Mimicking Complex Polysaccharides” (Advanced Science, 2020)
